Molecular target: peptide 91a (human)
Experiment: ITC

Kd: 3000 nM
stoichiometry N: ~1
B1: peptide 374a (peptide)
chain: EELARLEREYQDLLNVKMALDIEIATYRKLLEALESR

Reference: publication PMC7217734 (Journal of biomolecular structure & dynamics, 2019)
